The values that follow come from US20230071609A1 (Genentech, published 2023).

Experiment [1] deals with T1, gD-SRA-ID-GPI (construct e) (human, UniProt O14791 305-398, C-terminal GPI anchor).
T1 sequence: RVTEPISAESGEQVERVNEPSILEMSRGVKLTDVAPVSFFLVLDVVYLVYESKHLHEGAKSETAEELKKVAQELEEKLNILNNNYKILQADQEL
The experiment is described as follows: flow cytometry, live CHO cells expressing the construct, 5 µg/ml. As to the method: (§1) Stably transfected live (not fixed or permeabilized) CHO cells expressing the gD-iAPOL1-GPI constructs indicated in FIGS. 1A-1E after induction with 5 μg/ml dox for 48 h, showing differential antibody binding at 5 μg/ml. […] White histograms are Alexa488 anti-mouse or anti-rabbit secondaries only; grey histograms are the anti-APOL1 signals. A representative histogram for each category is shown: 3.7D6 for PFD; 3.3A8 for C-terminus of MAD, 3.5H9 for N-terminus of MAD; 3.1C1 for SRA-ID; 3.2D4 for multi-domain; 3.3F7 for conformational and 3.5B10 for FACS-negative (FACS-ve). The prefix 3 in the name of the antibodies denotes murine monoclonals from Method #3 (as shown in Example 1 below); other antibodies (not illustrated here) starting with the number 4 are murine monoclonals derived from mice additionally boosted with SRA-ID protein; and prefix 5-named antibodies are rabbit monoclonals from Method #5 (Table 2A; and Example 2). […] The Sigma polyclonal (HPA018885, raised to aa 263-387) and the Epitomics rabbit monoclonal (EPR2907(2), raised to an undisclosed peptide) are SRA-ID binders. […]
(§2) Cells were harvested with 5 mM EDTA in PBS, washed once with growth media and twice with PBS. […] Signals were read in a FACSCalibur3 (Becton Dickinson), with the exception of FIG. 8A and FIG. 14, which used a FACSCelesta, and data was analyzed using FlowJo v8.4.5.
Background: In flow cytometry, cells or beads pass a laser one at a time.

In experiment [2] the target is T2, iAPOL1-G0 in podocytes (EIK variant, doxycycline-inducible, in APOL1 KO podocytes) (human, UniProt O14791 29-398).
T2 construct: Stably re-expressed untagged APOL1 isoform A in APOL1 KO clone 89401-3; also called iAPOL1-G0 podocytes; iAPOL1 podocytes
T2 chain: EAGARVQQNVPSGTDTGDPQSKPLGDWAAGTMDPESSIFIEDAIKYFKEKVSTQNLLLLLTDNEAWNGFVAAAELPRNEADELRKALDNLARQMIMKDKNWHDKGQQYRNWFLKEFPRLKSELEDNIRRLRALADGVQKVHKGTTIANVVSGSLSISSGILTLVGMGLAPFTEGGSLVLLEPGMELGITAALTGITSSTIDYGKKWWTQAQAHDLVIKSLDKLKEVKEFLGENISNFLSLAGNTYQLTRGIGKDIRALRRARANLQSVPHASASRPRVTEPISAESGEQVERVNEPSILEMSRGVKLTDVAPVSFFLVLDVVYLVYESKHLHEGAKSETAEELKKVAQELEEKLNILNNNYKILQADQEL
Nature of the experiment: immunoelectron microscopy, iAPOL1-G0 podocytes, 25 µg/ml.

Experiment [3] deals with T3, circulating APOL1 in normal human serum (human, UniProt O14791 28-398).
T3 sequence (looked up): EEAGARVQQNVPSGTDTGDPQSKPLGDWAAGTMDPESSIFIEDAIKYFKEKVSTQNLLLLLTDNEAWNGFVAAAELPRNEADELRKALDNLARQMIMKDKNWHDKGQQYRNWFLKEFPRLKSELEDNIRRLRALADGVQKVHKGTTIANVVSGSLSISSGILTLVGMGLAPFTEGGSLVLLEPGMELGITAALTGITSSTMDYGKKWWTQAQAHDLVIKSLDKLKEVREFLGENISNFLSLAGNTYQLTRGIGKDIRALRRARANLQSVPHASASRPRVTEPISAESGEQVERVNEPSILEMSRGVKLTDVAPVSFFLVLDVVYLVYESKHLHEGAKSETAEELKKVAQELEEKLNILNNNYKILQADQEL
Nature of the experiment: cell-based or functional assay.

Experiment [4] addresses T2, iAPOL1-G0 in podocytes (EIK variant, …). Nature of the experiment: flow cytometry, iAPOL1-G0 podocytes, 1 µg/ml. As to the method:
APOL1 KO (black line) is completely negative, overlapping with Alexa488 anti-mouse secondary alone (grey line) as expected. A representative histogram from 3-4 experiments is shown.
Cells were harvested with 5 mM EDTA in PBS, washed once with growth media and twice with PBS. Approximately 0.5×10⁶/m1 of cells resuspended in PBS were incubated with anti-APOL1 antibodies for 1 h on ice. Following two PBS washes, 2 μg/ml of Alexa488 anti-mouse or anti-rabbit (Invitrogen A11029 and A21206, respectively) was used for 1 h on ice for detection. Cells were washed twice in PBS and resuspended in PBS with 1 μg/ml propidium iodide. Signals were read in a FACSCalibur3 (Becton Dickinson), with the exception of FIG. 8A and FIG. 14, which used a FACSCelesta, and data was analyzed using FlowJo v8.4.5. Mean fluorescence intensities were plotted in PRISM v7 after subtraction of secondary antibody alone background. For low pH experiments, cells were incubated with the antibodies in the presence of PBS pH 7.0 or PBS pH 5.5 for an hour on ice and detected with secondary antibodies at neutral pH.

For experiment [5], the target named is T4, gD-MAD-SRA-ID-GPI (construct d) (human, UniProt O14791 238-398, C-terminal GPI anchor).
T4 sequence: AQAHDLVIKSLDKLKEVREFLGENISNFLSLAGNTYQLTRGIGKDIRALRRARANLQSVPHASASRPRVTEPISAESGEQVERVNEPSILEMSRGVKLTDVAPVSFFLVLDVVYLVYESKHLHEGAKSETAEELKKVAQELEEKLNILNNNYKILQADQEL
Nature of the experiment: flow cytometry, live CHO cells; 3.7D6 is the representative PFD antibody. How it is done: as §1, §2

B1: antibody 3.1C1 (antibody, V domains shown)
VH: QVQLQQSGPELVKPGASVRISCKASGYTFTNYFIHWVKQRPGQGLEWIGWINPGNLNTKYTEEFKGKATLTADKSSSTAYIQLNSLTSEDSAVYFCVNGNPFVYWGQGTLVTVSA
VL: DIVMTQSPSSLTVIAGEKVTLNCKSSQSLLNSGNQKKYLTWLQQKPGQPPKLLIYWTSTRDSGVPDRFTGSGSGTDFTLTISSVQAEDLAVYYCQNDYSYPLTFGAGTKLEIKR
notes: Mouse mAb, cloned as murine IgG2a LALAPG; not written separately; also called SRA-ID mAb 3.1C1
With B1, in experiment [1], the binding result is reported as “binds”.

B2: rabbit monoclonal antibody 5.17D12 (antibody, V domains shown)
VH: QSLEESGGDLVKPGASLTLTCTASGFSFSSNYYMCWVRQAPGKGLEWIACVYVGSGGSTYYASWAKGRFTFSKTSSTTWTLQMTSLTAADTATYFCARDLSYAGDLWGPGTLVTVSS
VL: DPVMTQTPASVSEPVGGTVTINCQASESISSYLAWYQQKPGQPPKLLIYGASNLASGVPSRFKGSGSGTEYTLTISDLECDDAATYYCQSAYYSNSGGHAFGGGTEVVVKG
notes: Rabbit mAb (Method #5), recombinant; also called rabmab 5.17D12
B2: the binding result in experiment [2] is “binds”.

B3: antibody 3.7D6 (antibody, V domains shown)
VH: QIQLVQSGPDLKKPGETVKISCRTSGYAFTNYGVNWVKQAPGKGLKWMGWINTNTGQTTYAEEFRGRFAISLETSASTAFLTISNLKNEDSATYFCARLIYDGDYISSDFWGQGTTLTVSS
VL: DIQMTQSPDSLSASVGETVTITCGASENIYGALNWYQRKQGKSPQLLIYGATNLADGMSSRFSGSRSGRQYSLKISSLHPDDVATYYCQNALSMPYTFGGGTKLEIKR
notes: Mouse mAb, cloned as murine IgG2a LALAPG; those versions are not written separately; also called PFD antibody 3.7D6
With B3, in experiment [3], the “IC50 of blocking of serum APOL1-mediated trypanolysis (Alamar Blue)” value is 500 pM. Also, the binding result in experiment [4] is listed as “binds”; in experiment [5], “no binding (tested: 5 µg/ml)”.
